Test results reported in article PMC2978336.

B1: Y180AF ss probe (ssDNA)
DNA: CTCAGTTTCCGCGCGATTGACCGGATT
B2: 10-mer ssDNA (ssDNA)
DNA: GTTATTGCTC

Assays:
DnaD-Cd196 [1] = target: T1, DnaD-Cd196 (Bacillus subtilis, UniProt P39787 129-196); assay: EMSA
T1 sequence: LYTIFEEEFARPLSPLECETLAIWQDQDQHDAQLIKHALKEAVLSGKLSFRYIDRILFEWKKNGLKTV

DnaD-Cd215 = target: T2, DnaD-Cd215 (Bacillus subtilis, UniProt P39787 129-215); assay: NMR
T2 sequence: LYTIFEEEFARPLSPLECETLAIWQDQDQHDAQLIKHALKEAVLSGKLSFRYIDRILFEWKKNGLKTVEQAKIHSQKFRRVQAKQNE

DnaD-Cd (DnaD-Cd232) = target: T3, DnaD-Cd (DnaD-Cd232) (Bacillus subtilis, UniProt P39787 129-232); assay: NMR
T3 sequence: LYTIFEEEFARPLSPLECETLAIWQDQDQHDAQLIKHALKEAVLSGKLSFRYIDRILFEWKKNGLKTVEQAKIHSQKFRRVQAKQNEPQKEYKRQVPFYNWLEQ

DnaD-Cd196 [2] = target: T1, DnaD-Cd196; assay: NMR
DnaD-Cd206 = target: T4, DnaD-Cd206 (Bacillus subtilis, UniProt P39787 129-206); assay: NMR
T4 sequence: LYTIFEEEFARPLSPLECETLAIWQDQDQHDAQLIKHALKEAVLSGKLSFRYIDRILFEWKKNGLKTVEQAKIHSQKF

| Binder | binding result (DnaD-Cd196 [1]) | binding result (DnaD-Cd215) | binding result (DnaD-Cd (DnaD-Cd232)) | binding result (DnaD-Cd196 [2]) | binding result (DnaD-Cd206) |
| --- | --- | --- | --- | --- | --- |
| B1 | no binding | – | – | – | – |
| B2 | – | binds | binds | no binding | no binding |
